Source: the DeepSol protein solubility set

assay: soluble on expression in E. coli; label from the status in PepcDB or PDB records

Row | Sequence | soluble on expression in E. coli
1 | GSHMEQDLKTLPTTKITCPKCGNDTAYWWEMQTRAGDEPSTIFYKCTKCGHTWRSYE | soluble
2 | MNPGGAEVSVVIPAWNAEATLGRALASVRAQTLAPRQVIVVNDGSSDATPEIAARMATKTFPVTVIDRTGRGSGPAAARNAGIAAAGEPFVAFLDADDVWLPDKLARQMAALRASPDAVLCCCDAQWVGEDAPARTAHPTIYEDRPIKGGAEAWKEILLDCYVGTPCVVARRAALIEAGGFDERLVVGEDQDLWIRLALQGPVIALPEVLVRYGLSADSHMARHRALAASLWLPHFEALVSGLGARLSAGERDAILRARLWRMARSVYLDGRKDLGLSLMARAVAHGLPRRARMVFLARARLRSALGRNGLEHHHHHH | not soluble
3 | MSLDFLSQCTSGGCGAKIESRVLNQLLQHLPETPANERLLVGFEHADDAAVYQITSEKALISTVDFFSPMVNDPLSFGKIAVANALSDVYAMGGTVLYALNLVCFPQKMSKEWLEQMLLGGSLKLKEAGALLAGGHSIYDHEPKYGLAVTGEVHPENLWHNNTPQVGDVLILTKALGVGIIQAAVRGQLAKQTEQKIAQDSMERLNKYAAANARSYAVHACTDVTGFGLLIHAKEMADNQVTLLIDTEALPTITGALAYAAECLVTAAGQRNRQTIGTTIDYSKISMEMQELLFDPQTSGGLLISVAADEAAACLAAIQKEDPVAKIIGEVLPKEQQAVVLLEGHHHHHH | not soluble
4 | WTVNPYRGCTHACVYCFARKTHSYLDLDTGLGFDSQIVVKINAPDLLRRQLASRRWHGEHVAMGTNVDCYQRAEGRYQLMPGIIAALRDHANPFSILTKGTLILRDLDLLEQAAEVTDVGISVSVGFTDHELWRTVEPGTPAPERRLDVVRTLSEHGIGCGVLMAPVIPFLSDQPAQLRATVRAIAAAGATSVTPLVLHLRPGAREWFMAWLEHHHPYLVRRYERLYAEGAYAPKWYQRRITRQVHELAQEYGIGPTRAGMPRRIPEPEPETPPTPEPTQLTLL | not soluble
5 | GSFEEDLSQKNTWWSRGIYELLGYTPFEVEPRAELFFQHIKEPHRTLIKEHYLHLNQSQETQYISEDYEILTKKGEGRWLNSSVKLIRDEKGTLLKAQGAILDVT | not soluble
6 | MGSDKIHHHHHHMMDWLYRYPPLYPGILLKRYKRFFADVQLTSGEIVTAHCPNTGPMTGVSTPQSAVQLSKSDNLNRKLAYTLELIQVHDNEPTWVGINTFLPNRVVKLALAKYLFPELGEYSQIKGEVVYGLDKKSRVDFFLTGSDEERPIYLEVKNTTLSEGRLALFPDTETTRGQKHLRELMALLPLTRAVMLYFINRGDCTEFSPGDRTDPVYGKLLRDAIALGLEVLPCRFDISPEGIRYLGLAKLKI | not soluble
7 | MGSDKIHHHHHHVHHRHHKKGIIHRDADEMIEFPKRSNDRLGETMIHGQIICHGTPLDYVRPYLSSKKYPRVIINICVSDDGGWYRLTTGNMFDLEGSVTFTVRHQCLMDKLPPMIQCAVPYYTTEVTIDLSSNTTYIGRSFELSKMEAYSSADCLY | not soluble
8 | MPENSQPTTTEKGSEYLEQLANEAEELRKKLDQERHKLNDIPIQQAAERLDVMGALGVKQRRILKGHVGKVLCMDWSLDKRHIVSSSQDGKVIVWDGFTTNKEHALTMPTTWVMACAFSPSSQMIACGGLDNKCSVVPLSFEDDIIQKKRQVATHTSYMSCCTFLRSDNLILTGSGDSTCAIWDVESGQLIQNFHGHTGDVFAIDVPKCDTGNTFISAGADKHSLVWDIRSGQCVQSFEGHEADINTVRFHPNGDAFATGSDDATCRLFDLRADRQVCVYEKESILFPVNGVDFSLSGRILFAGYGDYRVGVWDSLKCARHSVLYGHENRISCLRTSPDGTAVCSASWDCTIRIWA | not soluble
9 | MGSDKIHHHHHHMEENKQTLYNDELLDILPDGVIIFNISGEVIQLNRQALTELHVHSSVNAMMPLPTNILFKLLNNKEDILSVILEKIRQGEQTYSLSEHTFMQEQVDYTQFPIRGDFATIKEDGNLKKILFFFRNITVELTQEYILNTALQRTRIYPWYYDINRSEFTLDNRYFEHLGISAGENNTLTMEEYVNMIHPDDRQAMADAFIVQLSGMETFDKSVPFRLHRGDGTWEWFEGQSTYIANISGHPYRLVGICMSIQEYKDIENTLIEARKKAEESDRLKMAFLANMSHEIRTPLNAIVGFSDVIGSTYDELSEEERADFVRLISINSEHLVRLIDDVLDLSKIESNTIKFTFTDCSLRSLMIDVEKEQTMKPISEIEIRALLPNEDVYINTDATRLKQVISNFINNARKFTEKGYIHFGYAVDSVDASSVHVFVEDTGSGIPKECQKEIFDRFYKVDTFKQGTGLGLSICKTIVEHLQGDISVESEMGKGSRFIVTLPFERQTED | not soluble
10 | MRDWVIPPISCPENEKGEFPKNLVQIKSNRDKETKVFYSITGQGADKPPVGVFIIERETGWLKVTQPLDREAIAKYILYSHAVSSNGEAVEDPMEIVITVTDQNDNRPEFTQEVFEGSVAEGAVPGTSVMKVSATDADDDVNTYNAAIAYTIVSQDPELPHKNMFTVNRDTGVISVLTSGLDRESYPTYTLVVQAADLQGEGLSTTAKAVITVKDINDNAPVFNPS | soluble
11 | RSECMGFFRRLLGLSWISIPKLPKKERKNNHDESENESLGNGYDTGESENLSGYLNNSEYEDGPAGESADDPDDYIPPHKEEGENDSSQSIQMGSMTVELAQEEEKADEALLAEIKTDPRMDLASYKFPSVDLLTQYDLQQPPIDMNEIEENQKRIIATLDSFKIHVTPIKATVGPTVTLYEVAPDSGIKISRIRNLEDDIAMSLKAVGGIRIIAPMPGKGTIGIEVPNRKPQTVSMYSVLTSKKYQESDMDLPVALGKTITNEVFIFDLCKMPHLLIAGATGQGKSVGLNAMITSLLYKKHPAELKFVLVDPKMLEFAVYEAIERHYLAKLPDEDRAIVTDMTKVVPTLNSLCIEMDNRYRMLTEARVRNIKEYNDQIISGKLSRLHGHKFLPYIVLIVDEFADLIMTSGKEVERPITRIAQKARAAGIHMVVATQRPSTDIITGIIKANFPARIAFKVFSMIDSRTILDQPGANQLVGRGDMLFYQGKDTVRLQCAFLDTPECEAVTHHISLQESYTSAYELPEYVPEGEEGGPKAFNPQEKDPLFEEVARMVVNSQQGSTSNIQRKFNIGYNRAGRLMDQLEGAGIVSPQDGSKPRQVLIQDEMSLERLFETLR | not soluble
12 | MGSDKIHHHHHHMKVGIDAGGTLIKIVQEQDNQRTFKTELTKNIDQVVEWLNQQQIEKLCLTGGNAGVIAENINIPAQIFVEFDAASQGLGILLKEQGHDLADYIFANVGTGTSLHYFDGQSQRRVGGIGTGGGMIQGLGYLLSQITDYKQLTDMAQHGDRNTIDLKVRHIYKDTEPPIPGDLTAANFGHVLHHLDADFTPSNKLAAVIGVVGEVVTTMAITVAREFKTENIVYIGSSFHNNALLRKVVEDYTVLRGCKPYYVENGAFSGAIGALYLEK | not soluble
13 | MLSNQQIRNFSRGVGHLRRRAAKNNVIKVRPEELRPFFNQYSVLPNGIQNDADAKLFSKELQPGERKLLFDALRKITADQYNDHKKVVEVTIDHEDLVKVWYINFIPMFVYGCLDEAFLIIGGESINK | not soluble
14 | MSLNMKVLITASSRGIGFNLAKELLNKGHEVTITSSNIRNIENAYKELRELGTVHYFQADLSSKEDIKRMVKDAWDAMGRIEALIWNAPNVKCEPCMVHEARYRDWLEAALLHLVSPGYITTLLIQAWLEKKIKGVLIYLSSASVLEPMPPLLLADTARAGLVQLTKGITRAYGGKGIRAYVVLLGSFDTPGARENLAKIAEERGMSLEEIWRKEVIERTPLKRTGKWSELGALIDFLLSENAEYMMGSTILFDGAMTRGVNEGHHHHHH | not soluble
15 | GPGSMHSTPAKEAEAEGYMRSGKKHLQKKLLQFKANYGGAAEDFDKAARIYTNLRNYPKAREAWTQACEAHSKAHNDFNAANSMEKLGDLASQCICESQSTMSSGSTAGMTAQLSEHLFQDAIHAYEEASKLYGVATNGSKQAAVLKKAADLISRSLATVHYRRPGTSGATTVDTAYLQKEYKRIIPELIELMERNWAATESKPFGLPDIYRSHVLLHLRSGDVEGAVHAEKRMIGIVSTSPADGTYDDSKNLFRILNQPSNAAKVGLEIVVLCLSTSVDDGYTWANIEMGRLGAVFGFCGSSEERAAAALLAAYAERDEDALQEALKTNTCFNFLAADVSRIAKKLTLGSKGHSKETGASVAAAGGPERSAAPPSSSQAPVDASETDSEDLR | soluble
16 | MGSDKIHHHHHHVEKLVILHTNDLHSHFENWPKIRRFMLGTRAAEQAEGASVLAFDDGDAMDRSAPLTEATQGQINVQLLNEIGYDAATIGNNEGVGNPHDVLEHLYDHANFPVALANLFEVDGSRPTWAKPFVRTQTRAGTRIAIVGFTAPFFLTYRPNGWQVKTVADVFPDILKQLSGTYDVLIVLSHLGIEADRHLAKQYPEIDVVIGGHTHHLLADGELHGTTLLTAAEKYGHYVGKVTLTLDDQHQIITRQAETFKTELMQAAAADPREIQGYESKGIALLKQHQVARLPKQLSIKYDGPSPLLDLGLEALADGAQVDAAILNAGLFLMPLGPGVVTQADLLTCLPHPMHLLKVTLSGKELWRLIMEMEKNRMFLRHFHMIGMSFRGKIFGDIGYRGISVNREKRVVLWHGKPLVPEQQYTFVTVDNFLFIPFFPTIEIMGSNELLFPKLLRNVVGEYLAQKYPL | not soluble
17 | MSIRDERKQQSRQALLDAALQLSTGGRSFSSISLREVAREVGLVPTAFYRHFQDMDALGQELVDQVALHIKSLIHQLGQSYLQQVSTHPDSSIELFFQAINHSPLEWQFMIAERWGGSAAVRQAIAREIEDLIEDLATDLRKLPMFEHIQDSQDLKVLSTILINLSFTWAMTWLSLASQYQDAALSQHQQQFVENANTQIRLMFRGVANWG | not soluble
18 | MPGAPSFIALDWGTSSLRAWRFGESPNPQEKREFPWGIMKLPSQAATREDAFHDTFLRVCGDWLAQTPCPVLACGMLGSAQGWQSAAYLPCPVTLEGLAKQLTPVIHQQQTMLHIIPGVIKEGEMPEVMRGEETQIFGAISMEPALQNAIHQGMPVLIGLPGTHAKWAVVENNTITDFRTFMTGELFDVLSRHSILGATMHPGDEPHWDAFTHGLTAAQEHHQTGLLSTLFSTRSRLLTSNLTSSSQGDYLSGLLIGHELCGLASSLLRDLPATTPIALIGSANLNSRYSQAFSHVFPGRQIHAIPNATEQGLWRIAHAAGLLSTNARECTHAI | not soluble
19 | MGHHHHHHSHMEEAGSVALEELVEKEKDRFFSGVDYIVISDNLWISQRKPAITYGTRGNSYFMVEVKCRDQDFHSGTFGGILHEPMADLVALLGSLVDSSGHILVPGIYDEVVPLTEEEINTYKAIHLDLEEYRNSSRVEKFLFDTKEEILMHLWRYPSLSIHGIEGAFDEPGTKTVIPGRVIGKFSIRLVPHMNVSAVEKQVTRHLEDVFSKRNSSNKMVVSMTLGLHPWIANIDDTQYLAAKRAIRTVFGTEPDMIRDGSTIPIAKMFQEIVHKSVVLIPLGAVDDGEHSQNEKINRWNYIEGTKLFAAFFLEMAQLH | not soluble
